The record followed here is patent US20260049137A1 (JANUX THERAPEUTICS, published 2026).

For test [1], the target named is T1, TROP2 on TROP2 positive NCI-H292 or HCT116 tumor cells (UniProt P09758 27-323, limits assumed).
T1 sequence (looked up): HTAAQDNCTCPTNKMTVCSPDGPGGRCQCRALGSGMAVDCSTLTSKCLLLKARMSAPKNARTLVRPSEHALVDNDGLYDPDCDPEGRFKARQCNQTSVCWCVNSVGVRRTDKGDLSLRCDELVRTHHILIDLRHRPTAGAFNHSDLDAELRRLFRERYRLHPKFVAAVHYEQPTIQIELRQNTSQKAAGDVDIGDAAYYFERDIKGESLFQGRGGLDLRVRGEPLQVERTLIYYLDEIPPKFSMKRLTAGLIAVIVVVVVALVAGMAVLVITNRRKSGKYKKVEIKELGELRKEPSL
Kind of test: cell-based or functional assay.

For test [2], the target named is T1, TROP2 on TROP2 positive NCI-H292 or …. Kind of test: cell-based or functional assay. The source holds these as a separate data set.
Test [3] has the same target. As to the kind of experiment: cell-based or functional assay. This is another data set of the same source.
Test [4] has the same target. As to the kind of experiment: cell-based or functional assay. This is another data set of the same source.
For test [5] the target is unchanged. Kind of test: cell-based or functional assay. The source holds these as a separate data set.
Test [6] addresses T2, cynomolgus monkey TROP2 on recombinant HEK293 cells (cynomolgus monkey, UniProt A0A2K5UE71 27-323).
T2 sequence: T1 sequence (looked up) with M36V, K46E, S67N, I204V, M266V, T272S
Kind of test: cell-based or functional assay.

For test [7], the target named is T3, human CD3ε-biotin (biotinylated CD3ε) (human, UniProt P07766 23-126, limits assumed, biotinylated).
T3 construct: also called CD3e-bio; CD3e-biotin
T3 sequence (P07766 23-126 limits assumed): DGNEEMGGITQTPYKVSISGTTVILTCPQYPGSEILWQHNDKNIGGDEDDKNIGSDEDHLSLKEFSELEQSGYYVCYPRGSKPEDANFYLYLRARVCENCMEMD
Kind of test: ELISA: biotinylated CD3 captured on neutravidin coated plates, HRP secondary antibody, OD 450 nm. (In general: An ELISA detects its analyte on a solid surface through an enzyme-linked reagent.)
Method: (§1) The TCE constructs diluted in buffer were then added to the antigen coated plates. Binding was detected using a standard horse radish peroxidase secondary antibody. The concentration of the TCE required to achieve 50% maximal signal (EC₅₀) was calculated using Graphpad Prism software.

In test [8] the target is T4, human TROP2-biotin (biotinylated TROP2) (human, UniProt P09758 27-274, limits assumed, biotinylated).
T4 construct: also called hTROP2-Biotin
T4 sequence (looked up): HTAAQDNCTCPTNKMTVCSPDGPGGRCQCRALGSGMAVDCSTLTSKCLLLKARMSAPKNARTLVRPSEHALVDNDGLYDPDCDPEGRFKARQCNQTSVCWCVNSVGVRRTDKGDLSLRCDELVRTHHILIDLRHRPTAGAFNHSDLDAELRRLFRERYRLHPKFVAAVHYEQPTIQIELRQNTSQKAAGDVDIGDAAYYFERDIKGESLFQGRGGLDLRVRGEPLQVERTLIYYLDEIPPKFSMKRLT
Kind of test: ELISA: biotinylated TROP2 captured on neutravidin coated plates, HRP secondary antibody, OD 450 nm.
Method: as §1

Numbering of substitutions follows the chain as printed. Numbers in names are those of the source. Where two headings read alike, the source gives them in different places. A value given as a limit tells only on which side of the number the result lay.

B1: TCE-1: anti-CD3 scFv wt + linker + anti-TROP2 HC wt, with anti-TROP2 LC wt (bispecific antibody)
light: DIQLTQSPSSLSASVGDRVSITCKASQDVSIAVAWYQQKPGKAPKLLIYSASYRYTGVPDRFSGSGSGTDFTLTISSLQPEDFAVYYCQQHYITPLTFGAGTKVEIKRTVAAPSVFIFPPSDEQLKSGTASVVCLLNNFYPREAKVQWKVDNALQSGNSQESVTEQDSKDSTYSLSSTLTLSKADYEKHKVYACEVTHQGLSSPVTKSFNRGEC
heavy: not shown
For B1, the “H292 Cytotox EC50 (pM)” value in test [1], in test [2] and in test [3] was 0.7 pM each time.

B2: TCE-27: anti-CD3 scFv + linker + anti-TROP2 HC wt, with anti-TROP2 LC wt (bispecific antibody)
light: B1 light
heavy: EVQLVESGGGLVQPGGSLKLSCAASGFTFNKYAMNWVRQASGKGLEWVGRIRSKYNNYATYYADSVKDRFTISRDDSKNTAYLQMNSLKTEDTAVYYCVRHGNFGNSYISYWAYWGQGTLVTVSSGGGGSGGGGSGGGGSQTVVTQEPSFSVSPGGTVTLTCRSSTGAVTSGNYANWVQQTPGQAPRGLIGGTKFLAPGVPDRFSGSILGNKAALTITGAQADDESDYYCVLWYSNRWVFGGGTKLTVLGGGGSQVQLQQSGSELKKPGASVKVSCKASGYTFTNYGMNWVKQAPGQGLKWMGWINTYTGEPTYTDDFKGRFAFSLDTSVSTAYLQISSLKADDTAVYFCARGGFGSSYWYFDVWGQGSLVTVSSASTKGPSVFPLAPSSKSTSGGTAALGCLVKDYFPEPVTVSWNSGALTSGVHTFPAVLQSSGLYSLSSVVTVPSSSLGTQTYICNVNHKPSNTKVDKKVEPKSC
With B2, the “H292 Cytotox EC50 (pM)” value in test [3] is 0.5 pM.

B3: TCE-29: anti-CD3 scFv wt + linker + anti-TROP2 (F108A) HC, with anti-TROP2 LC wt (bispecific antibody)
light: B1 light
heavy: not shown
Take B3: the “HCT116 Cytotox EC50 (pM)” value in test [4] is 109 pM. For the same molecule, in test [5], the “H292 Cytotox EC50 (pM)” value came out at 5 pM. The “CynoTROP2+ HEK293 cells Cytotox EC50 (pM)” value in test [6] amounted to 0.2 pM.

B4: TCE-33: anti-CD3 scFv + linker + anti-TROP2 (F108A) HC, with anti-TROP2 LC wt (bispecific antibody)
light: B1 light
heavy: B2 heavy with F362A
In the case of B4, in test [4], the “HCT116 Cytotox EC50 (pM)” value was 73 pM. For the same molecule, in test [5], the “H292 Cytotox EC50 (pM)” value was found to be 3 pM.

B5: TCE-19: anti-CD3 scFv (W233A) + linker + anti-TROP2 HC wt, with anti-TROP2 LC wt (bispecific antibody)
light: B1 light
heavy: not shown
For the molecule B5, in test [2], the “H292 Cytotox EC50 (pM)” value was greater than 1000 pM.

B6: TCE-35: anti-CD3 scFv wt + linker + anti-TROP2 (D109A) HC, with anti-TROP2 LC wt (bispecific antibody)
light: B1 light
heavy: not shown
Consider B6, for which the “H292 Cytotox EC50 (pM)” value in test [5] was 1 pM. Further, the “CynoTROP2+ HEK293 cells Cytotox EC50 (pM)” value in test [6] came to 0.1 pM.

B7: TCE-28: anti-CD3 scFv + linker + anti-TROP2 HC wt, with anti-TROP2 LC wt (bispecific antibody)
light: B1 light
heavy: not shown
As for B7, the “H292 Cytotox EC50 (pM)” value in test [3] worked out at 2.1 pM.

B8: TCE-48 (bispecific antibody)
light chain (anti-TROP2 LC wt): B1 light
heavy chain (anti-CD3 scFv L232A + linker + anti-TROP2 F108A HC): not shown
notes: also called TCE-48: anti-CD3 scFv (L232A) + linker + anti-TROP2 (F108A) HC, with anti-TROP2 LC wt
As for B8, the figures for the concentration for a half-maximal effect (EC50) in test [7] and in test [8] were 360 pM and 1300 pM, respectively.

B9: TCE-24: anti-CD3 scFv (W238A) + linker + anti-TROP2 HC wt, with anti-TROP2 LC wt (bispecific antibody)
light: B1 light
heavy: not shown
B9: the “H292 Cytotox EC50 (pM)” value in test [2] was greater than 1000 pM.

B10: TCE-49 (bispecific antibody)
light chain (anti-TROP2 LC wt): B1 light
heavy chain (anti-CD3 scFv N236A + linker + anti-TROP2 F108A HC): not shown
notes: also called TCE-49: anti-CD3 scFv (N236A) + linker + anti-TROP2 (F108A) HC, with anti-TROP2 LC wt
Regarding B10, the half-maximal effective concentration (EC50) in test [7] worked out at 230 pM; in test [8], 870 pM.

B11: TCE-26: anti-CD3 scFv (F240A) + linker + anti-TROP2 HC wt, with anti-TROP2 LC wt (bispecific antibody)
light: B1 light
heavy: not shown
Regarding B11, the “H292 Cytotox EC50 (pM)” value in test [2] stood at 20 pM.

B12: TCE-32: anti-CD3 scFv (F240A) + linker + anti-TROP2 (F108A) HC, with anti-TROP2 LC wt (bispecific antibody)
light: B1 light
heavy: not shown
Consider B12, for which the “HCT116 Cytotox EC50 (pM)” value in test [4] is greater than 3000 pM. For the same molecule, in test [6], the “CynoTROP2+ HEK293 cells Cytotox EC50 (pM)” value turned out to be 5 pM.

B13: TCE-30: anti-CD3 scFv (H101A) + linker + anti-TROP2 (F108A) HC, with anti-TROP2 LC wt (bispecific antibody)
light: B1 light
heavy: not shown
For the molecule B13, in test [6], the “CynoTROP2+ HEK293 cells Cytotox EC50 (pM)” value worked out at 1 pM.

By EC50 is commonly meant the midpoint of the concentration-response curve.
